Source: the Human Domainome abundance scans (Beltran et al. 2025)
± gives the uncertainty stated by the source.

B1: POU domain, class 2, transcription factor 1, residues 285 to 354; numbered along this chain, P14859 (parent)
chain: LEELEQFAKTFKQRRIKLGFTQGDVGLAMGKLYGNDFSQTTISRFEALNLSFKNMCKLKPLLEKWLNDAE

Variants of: B1
Test: abundance fitness (aPCA) (normalised: wild type 0, dead -1); higher = more abundant; growth selection in yeast, the domain comes from the species named
Settings: Homo sapiens

Abundance fitness of substitutions, site by site:
F37: T -0.059 ± 0.027 | Y -0.135 ± 0.068 | P -0.148 ± 0.02 | G -0.211 ± 0.027 | M -0.011 ± 0.028 | C 0.028 ± 0.046 | N -0.337 ± 0.068 | I -0.011 ± 0.035 | S -0.119 ± 0.021 | Q -0.214 ± 0.036 | L -0.003 ± 0.017 | D 0.006 ± 0.14 | E -0.199 ± 0.075 | V 0.038 ± 0.029 | R -0.355 ± 0.032 | K -0.184 ± 0.048 | A -0.081 ± 0.033
M29: Y -0.512 ± 0.057 | R -0.998 ± 0.092 | S -0.49 ± 0.026 | V 0.031 ± 0.023 | W -0.625 ± 0.089
D36: S -0.05 ± 0.029 | M -0.121 ± 0.12 | K -0.028 ± 0.058 | P -0.058 ± 0.047 | E -0.027 ± 0.039 | N -0.043 ± 0.068 | G -0.092 ± 0.022 | I -0.006 ± 0.075 | H -0.077 ± 0.038 | Y -0.037 ± 0.03 | V -0.029 ± 0.044 | Q -0.034 ± 0.031 | L 0.014 ± 0.041 | R -0.047 ± 0.023 | A -0.049 ± 0.035 | F -0.19 ± 0.062 | C -0.036 ± 0.026
G30: N -0.113 ± 0.098 | Q 0.102 ± 0.12 | E -0.025 ± 0.053 | K -0.034 ± 0.074 | S -0.019 ± 0.026 | A 0.014 ± 0.025 | H -0.068 ± 0.066 | D -0.087 ± 0.059 | R 0.01 ± 0.028 | M -0.024 ± 0.04 | F 0.014 ± 0.024 | W 0.006 ± 0.024 | L -0.015 ± 0.02 | I 0.012 ± 0.026 | P -0.209 ± 0.044 | T -0.028 ± 0.043 | Y 0.002 ± 0.045 | C 0 ± 0.025
G34: F -0.276 ± 0.1 | T -0.16 ± 0.04 | K -0.039 ± 0.042 | E -0.01 ± 0.028 | N -0.041 ± 0.1 | H -0.097 ± 0.075 | L -0.151 ± 0.019 | W -0.301 ± 0.034 | P 0 ± 0.029 | C -0.023 ± 0.081 | D -0.036 ± 0.096 | A -0.027 ± 0.025 | R -0.027 ± 0.026 | V -0.164 ± 0.026 | Y -0.165 ± 0.12 | I -0.189 ± 0.12 | S -0.1 ± 0.026
Y33: N -0.075 ± 0.034 | K -0.053 ± 0.043 | C -0.04 ± 0.038 | Q -0.067 ± 0.028 | R -0.103 ± 0.022 | M -0.11 ± 0.067 | T -0.061 ± 0.024 | F -0.031 ± 0.05 | V -0.151 ± 0.06 | G -0.097 ± 0.055 | P -0.104 ± 0.021 | W -0.122 ± 0.086 | S -0.039 ± 0.027 | H 0.031 ± 0.023 | L -0.008 ± 0.027 | E -0.047 ± 0.068 | D -0.125 ± 0.051 | I -0.019 ± 0.039 | A -0.045 ± 0.053
L32: V -0.226 ± 0.19 | D -0.078 ± 0.093 | H -0.004 ± 0.047 | K 0.031 ± 0.022 | F -0.193 ± 0.23 | N -0.054 ± 0.048 | S -0.154 ± 0.18 | T 0.005 ± 0.022 | Q -0.012 ± 0.024 | R -0.031 ± 0.03 | A -0.006 ± 0.029 | G -0.107 ± 0.027 | E -0.005 ± 0.034
N35: M -0.108 ± 0.22 | Y -0.494 ± 0.36 | R 0.008 ± 0.021 | A -0.011 ± 0.019 | P -0.031 ± 0.02 | D 0.035 ± 0.042 | K 0.006 ± 0.022 | G 0.053 ± 0.021 | Q 0 ± 0.021 | T 0.002 ± 0.02 | V -0.057 ± 0.34 | E 0.025 ± 0.022 | H 0.073 ± 0.046 | I 0.03 ± 0.1 | S -0.038 ± 0.086
K31: R 0.018 ± 0.02 | F -0.126 ± 0.066 | V -0.126 ± 0.028 | M -0.256 ± 0.057 | I -0.495 ± 0.31 | L -0.166 ± 0.026 | H 0.003 ± 0.062 | C -0.12 ± 0.047 | S -0.068 ± 0.029 | W -0.323 ± 0.034 | P -0.115 ± 0.022 | N -0.217 ± 0.11 | E 0.058 ± 0.054 | G -0.066 ± 0.025 | A -0.027 ± 0.023 | Y -0.069 ± 0.13 | D -0.029 ± 0.13 | Q -0.034 ± 0.038
Q39: G 0.005 ± 0.02 | D 0.008 ± 0.036 | P -0.011 ± 0.021 | T 0.008 ± 0.035 | L -0.026 ± 0.036 | M -0.056 ± 0.066 | N -0.055 ± 0.062 | I -0.057 ± 0.062 | F -0.14 ± 0.1 | K 0.014 ± 0.04 | R 0.005 ± 0.021 | S 0.015 ± 0.03 | H 0.028 ± 0.039 | A 0.015 ± 0.02 | E 0.013 ± 0.03 | C -0.037 ± 0.048
S38: R -0.061 ± 0.02 | T 0.012 ± 0.02 | N -0.032 ± 0.046 | F -0.199 ± 0.34 | A -0.038 ± 0.031 | Y -0.271 ± 0.23 | D 0.048 ± 0.1 | Q -0.03 ± 0.021 | K -0.011 ± 0.018 | G 0.023 ± 0.028 | P -0.041 ± 0.022 | E -0.03 ± 0.037
